Response (Log2 normalized LU) data for one substance are collected here from article PMC9410543.

This assay deals with GLuc1-ALIX (UniProt Q8WUM4). The assay can be described thus: protein-fragment complementation assay (split Gaussia luciferase, GLuc2 bait / GLuc1 prey). The following applies: parent: est. 7.4; read off a plot.
GLuc1-ALIX, sequence (Q8WUM4 whole entry, the tested form may be a part): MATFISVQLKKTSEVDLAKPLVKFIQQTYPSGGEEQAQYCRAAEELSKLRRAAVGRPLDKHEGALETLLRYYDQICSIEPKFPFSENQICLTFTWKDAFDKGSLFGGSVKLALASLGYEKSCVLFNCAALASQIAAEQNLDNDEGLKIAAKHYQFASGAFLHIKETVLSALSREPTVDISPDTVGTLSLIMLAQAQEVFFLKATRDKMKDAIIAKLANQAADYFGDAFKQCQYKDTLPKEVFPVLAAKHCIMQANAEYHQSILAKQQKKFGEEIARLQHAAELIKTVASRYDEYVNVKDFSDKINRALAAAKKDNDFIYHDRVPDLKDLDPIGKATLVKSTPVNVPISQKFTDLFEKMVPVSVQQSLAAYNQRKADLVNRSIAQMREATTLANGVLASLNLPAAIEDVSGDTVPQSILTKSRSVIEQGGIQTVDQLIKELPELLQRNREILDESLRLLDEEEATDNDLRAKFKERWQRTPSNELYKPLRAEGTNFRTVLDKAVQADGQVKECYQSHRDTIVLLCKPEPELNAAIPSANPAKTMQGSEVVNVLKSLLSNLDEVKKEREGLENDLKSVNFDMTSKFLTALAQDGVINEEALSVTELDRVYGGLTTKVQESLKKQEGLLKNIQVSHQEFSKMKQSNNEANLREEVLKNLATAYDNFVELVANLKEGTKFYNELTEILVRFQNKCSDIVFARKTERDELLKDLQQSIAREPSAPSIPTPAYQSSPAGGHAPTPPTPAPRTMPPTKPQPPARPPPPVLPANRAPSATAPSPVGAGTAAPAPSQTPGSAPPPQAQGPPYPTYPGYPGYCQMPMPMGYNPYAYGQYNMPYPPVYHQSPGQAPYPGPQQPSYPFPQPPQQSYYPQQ

On to GLuc2-pX Y800A; K801A; E802A; L803A, for which the response (Log2 normalized LU) was found to be 1.5.
